Test results as given in patent US20260176619A1 (published 2026).

T1: His-tagged recombinant human CD45 (human, UniProt P08575 26-577, limits assumed)
T1 construct: His-tagged
T1 sequence (looked up): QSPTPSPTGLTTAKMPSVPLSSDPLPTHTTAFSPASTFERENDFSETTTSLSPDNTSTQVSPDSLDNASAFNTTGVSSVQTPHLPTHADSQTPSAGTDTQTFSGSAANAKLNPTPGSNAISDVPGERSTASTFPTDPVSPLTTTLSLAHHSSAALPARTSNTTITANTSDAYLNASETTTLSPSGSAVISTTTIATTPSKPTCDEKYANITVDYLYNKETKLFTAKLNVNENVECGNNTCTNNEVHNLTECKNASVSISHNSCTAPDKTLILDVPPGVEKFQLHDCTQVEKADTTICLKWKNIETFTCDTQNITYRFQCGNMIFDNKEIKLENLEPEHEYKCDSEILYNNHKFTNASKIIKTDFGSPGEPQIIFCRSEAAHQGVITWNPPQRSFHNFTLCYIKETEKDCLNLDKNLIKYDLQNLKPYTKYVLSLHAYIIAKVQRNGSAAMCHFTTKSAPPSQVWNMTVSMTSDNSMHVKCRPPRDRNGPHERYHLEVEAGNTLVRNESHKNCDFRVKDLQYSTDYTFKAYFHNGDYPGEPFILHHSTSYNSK

B1: L122-CD45 scFv (scFv)
scFv: EVKLLESGGGLVQPGGSLKLSCAASGFDFSRYWMSWVRQAPGKGLEWIGEINPTSSTINFTPSLKDKVFISRDNAKNTLYLQMSKVRSEDTALYYCARGNYYRYGDAMDYWGQGTSVTVSSAKGGGGSGGGGSGGGGSGGGGSDIALTQSPASLAVSLGQRATISCRASKSVSTSGYSYLHWYQQKPGQPPKLLIYLASNLESGVPARFSGSGSGTDFTLNIHPVEEEDAATYYCQHSRELPFTFGSGTKLEIKGGGGSGGGGSDYKDDDDKGGGGSC
notes: Full scFv-FLAG tagged with an extra C-terminal cys residue
B2: L111-CD45 scFv (scFv)
scFv: DIQMTQSPSFLSASVGDRVTINCKASQNINKYLDWYQQKHGEAPKLLIHYTNNLHTGIPSRFSGSGSGTDYTLTISSLQPEDVATYFCLQHSSRWTFGGGTKLELKGGGGSGGGGSGGGGSGGGGEVQLVESGGDLVQPGRSLKLSCIASGFTFTNFWMTWIRQVSGKGLEWVASISSSGGSIYYPDSVKDRFTISRDNAKNTLYLQMNSLRSEDTATYYCVKLHYYSGGGDAWGQGTSVTVSSGGGGSGGGGSDYKDDDDKGGGGSC
notes: Full scFv-FLAG tagged with an extra C-terminal cys residue; also called L11I-CD45; LIII-CD45 scFv
B3: L112-CD45 scFv (scFv)
scFv: EVQLVESGGDLVQPGRSLKLSCVASGFTFNNYWMTWIRQVPGKGLEWVASISSSGGSIYYPDSVKDRFTISRDNAKNTLFLQMNSLRSEDTATYYCARLYYYSGGGDAWGQGTSVTVSSGGGGSGGGGSGGGGSGGGGDIQMTQSPSFLSASVGDRVTIICKASQDINKYLDWYQQKLGEAPKLLIYNTNNLHTGIPSRFSGSGSGTDYTLTISSLQPEDVATYFCLQHISRWTFGGGTKLELKGGGGSGGGGSDYKDDDDKGGGGSC
notes: as for B1

biological target: T1, His-tagged recombinant human CD45; assay: assay not given; the affinity ELISA is described in Example 22
Experimental: 20 nM His-tagged recombinant human receptors: CD117, CD45, CD46, CD133, and CD135, were immobilized onto nickel coated plates overnight at 4° C. in TBS buffer. Non-bound receptors were removed with three-washes of 1×TBS-T buffer. Blocking buffer was added to each well and incubated plate for 0.5 hr at room temperature with continuous shaking of 550 rpm. The plate was washed with 1X TBS-T. Serial dilutions of candidate ligands with concentrations ranged from 2 pM to 1 μM were added to each well and incubated for 1 hr at room temperature with continuous shaking of 550 rpm. After three washes of 1X TBS-T, horseradish peroxidase (HRP) enzyme liked FLAG antibody solution (1:200) was added to each well for 1 hr at room temperature with continuous shaking of 550 rpm. Chemiluminescent substrate was added and HRP enzymic activity was measured using an […]. The data was analyzed by non-linear regression to estimate binding affinity.

Kd, > 10 nM:
B1
B2
B3
